How the values were obtained:
MS2 coat protein [1] = experiment: apparent KD of MS2 coat protein; higher = weaker reporter binding; details: Eterna round: R101
Method: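 RNA-MaP: designed FMN/MS2 RNA switches (84 nt design region) are transcribed on-chip within common flanks and titrated with SNAP-549-labelled MS2 coat protein (about 1-3000 nM) in 100 mM Tris pH 7.5, 80 mM KCl, 4 mM MgCl2, without or with 200 uM FMN. Median apparent KD per design; activation ratio = KD,OFF / KD,ON.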

MS2 coat protein [2] = experiment: apparent KD of MS2 coat protein, switch ON state; designed switch direction (-1 OFF switch, 1 ON switch): 1; higher = weaker reporter binding; details: FMN input: 0 or 200 uM; Eterna round: R93 (includes R88 designs)
Procedure, shortened: (§1)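 In 100 mM Tris-HCl pH 7.5 with 80 mM KCl and 4 mM MgCl2, and without or with constant ligand, SNAP-549-labelled MS2 coat protein was titrated in twofold steps from 0.7 or 1.5 nM to 3 µM. Per-step times went from 0.8–1.5 h down to 10–20 min. The RNA switches were transcribed on-chip from Illumina sequencing clusters, and apparent KD is the per-design median of normalised cluster binding-curve fits.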

MS2 coat protein [3] = experiment: apparent KD of MS2 coat protein, switch OFF state (with FMN for OFF switches, without FMN for ON switches); designed switch direction (-1 OFF switch, 1 ON switch): 1; higher = weaker reporter binding; details: FMN input: 0 or 200 uM; Eterna round: R93 (includes R88 designs)
Procedure, shortened: as §1

| Sequence | apparent KD of MS2 coat protein (MS2 coat protein [1]; input ligand: FMN 200 uM) | apparent KD of MS2 coat protein (MS2 coat protein [1]; input ligand: none) | apparent KD of MS2 coat protein (MS2 coat protein [2]) | apparent KD of MS2 coat protein (MS2 coat protein [3]) |
| --- | --- | --- | --- | --- |
| AAAGAUUUUUAAGGAUAUGACUCCGAAACGGAGUCAGAAGGUGAGGAUCACCCACCUAGCUCAGCGUCGAAAGACGCUGAGCAA [#SharedSequence ExNG1 - 24] (puzzle (switch architecture): Exclusion NG 1) | 11 nM | 8.75 nM | – | – |
| AAAUAACUCGAAGGAUAUGACCCUCGAGGUGACUAAAAGUCACCUCGAGGGUCAGAAGGUCGAGGAUCACCCGACCUAGUGAAA [#SharedSequence SLExNG1: 8] (puzzle (switch architecture): Small Loop Exclusion NG 1) | 65.9 nM | 10.3 nM | – | – |
| AAAUAACUUGAAGGAUAUGACCCUCGAGGUGACUAAAAGUCACCUCGAGGGUCAGAAGGUCGAGGAUCACCCGACCAAAUAAAU [#SharedSequence SLExNG1: 10] (puzzle (switch architecture): Small Loop Exclusion NG 1) | 11.2 nM | 10.9 nM | – | – |
| AAGUGAAAUCAGAAGGCGUGGACGAAACGUCCACGAGGAUAUGAGGAUCACCCAUAUCAGGUCAGCCUGCAAAGCAGGCUGACC [#SharedSequence - IExNG1: 5-2] (puzzle (switch architecture): Inverted Exclusion NG 1) | 537 nM | 30.2 nM | – | – |
| AAGUGAAAUCAGAAGGCGUGGACGAAACGUCCACGAGGAUAUGAGGAUCACCCAUGUCAGGUCAGCCUGCAAAGCAGGCUGACC [#SharedSequence - IExNG1: 6-1] (puzzle (switch architecture): Inverted Exclusion NG 1) | 259 nM | 66.2 nM | – | – |
| AAUAAAGAUCCUAGAGGAUCACCCUAGGAUAUGAGGCUGCACCUCGGAUAAUCCGAGGUGCAGCCUCAGAAGGAGGAAAUAAAU [#SharedSequence - SLExNG3: 5-2] (puzzle (switch architecture): Small Loop Exclusion NG 3) | 25.8 nM | 11.6 nM | – | – |
| AAUAAUUCUUAAGGAUAUCAGUGGCAAAGCCACUGAGAAGGUGAGGAUCACCCACCUACGUGACGCUGGAAACAGCGUCACGAA [#SharedSequence ExNG1 - 30] (puzzle (switch architecture): Exclusion NG 1) | 23.1 nM | 16.2 nM | – | – |
| AAUUAAAUCCUAGGAUAUCAGUGGCAAAGCCACUGAGAAGGAGGAUCACCCUUUCAAACGUGACGCUGGAAACAGCGUCACGAA [#SharedSequence - ExNG1-18] (puzzle (switch architecture): Exclusion NG 1) | 444 nM | 699 nM | – | – |
| AGACCUGCUCAGAAGGCGGAAACGAGGCUGGAAACAGCCUCGAAUUAAGAUCUUCGAGGAUCACCCGAGGAUAUGAGCAGGUCA [#SharedSequence - IExNG2: 14] (puzzle (switch architecture): Inverted Exclusion NG 2) | 593 nM | 60.7 nM | – | – |
| AGGAGAAAUGUAGGAUAUGGGCGGGCGUAUGGGCAAAGCGCAUACGCCCGCCCAGAAGGACAUGAGGAUCACCCAUGUUUCCCU [#Lowering the energy 2] (puzzle (switch architecture): Small Loop Exclusion NG 1) | 13.8 nM | 11.7 nM | – | – |
| GCUGGGCUACACUAGGAUAUGGGUGUCUAAACAUGAGGAUCACCCAUGUGAUGGCAAAACAAAGCUCAGAAGGAGUCGUAGCCCA [Inrionarus] | – | – | 14.7 nM | 22.3 nM |
| GGAAGACAUGAGGAUCACCCAUGUGGGAAUAUGGGAGGAUAUACAAAGACGAGAGUCAGAGUAGAAGGCCUAGGAG [salish99-ss1-101] | – | – | 68.2 nM | 106 nM |
| GGAUAUAUACAGGAGGAUAUGAGAACAAAGACAUGAGGAUCACCCAUGUACAAAAGGUGGAACAAUCAGAAGGUCUAAACAACAAA [Thing 1 and Thing 2] | – | – | 61 nM | 49.7 nM |
| GGCUGCGUUGUGAAGGAUAUCCGCGUCUGGACAUGAGGAUCACCCAUGUAUACUUGGAUCGUGCAGGAGAAGGUCAAGGGUGAUU [JR_SS002_Sub1211] | – | – | 130 nM | 63.3 nM |
| GGGAAUAAAAGAGAGGAUAUCCAAAGGAAAACAUGAGGAUCACCCAUGUAAAAGGAAGGAAAUUGGGAGAAGGCUCAAGAUAGGG [salish99-ss2-012] | – | – | 29.4 nM | 26.1 nM |
| GGGAGACAUGAGGAUCACCCAUGUGAGAAGAGGCGAGGAUAUCGAAAGAAAGAAGAGAAACGAGAAGGCGCGAGAG [salish99-SS1-057] | – | – | 48 nM | 59.8 nM |
| GGGAGACAUGAGGAUCACCCAUGUGAGAAGAGGCGAGGAUAUCGAAAGAAAGAAGAGAAACGAGAAGGCGCGAGCG [salish99-SS1-060] | – | – | 32.5 nM | 86.7 nM |

| Sequence | apparent KD of MS2 coat protein (MS2 coat protein [1]; input ligand: FMN 200 uM) | apparent KD of MS2 coat protein (MS2 coat protein [1]; input ligand: none) | apparent KD of MS2 coat protein (MS2 coat protein [2]) | apparent KD of MS2 coat protein (MS2 coat protein [3]) |
| --- | --- | --- | --- | --- |
| GGGAGGAAGAGAGAGGAUAUCCAAAGGAAAACAUGAGGAUCACCCAUGUAAAAGGUAGGAAAUUGGGAGAAGGCUCAAAAGACGG [salish99-ss2-047] | – | – | 28.1 nM | 52.5 nM |
| GGGAGGAAGAGAGAGGAUAUCCAAAGGAAAACAUGAGGAUCACCCAUGUAAAAGGUAGGAAAUUGGGAGAAGGCUCAAAAGAGGA [salish99-ss2-039] | – | – | 31.3 nM | 30.3 nM |
| GUAAAACAUGAGGAUCACCCAUGUAGAAAUAUGGGAGGAUAUACGAAGACGAAAGUCAAAGUAGAAGGCCUAAAGU [Mat - Same State 1 - Eli mod - D111] | – | – | 26.1 nM | 54.9 nM |
| GUGGUGUAGAUACAGGAUAUGUUGCUCGUAACAUGAGGAUCACCCAUGUAUCUAUGAGAUUAAAUGCAGAAGGGUGCACACCACG [Maerveen] | – | – | 17.3 nM | 374 nM |
| UAAAAAAAAAGGCAGGAUAUCCAAAAUAAAACAUGAGGAUCACCCAUGUAAAAAAAAAAAAAAUGGGAGAAGGGCCAAAAAAAAU [Mat - Same State 2 - Mod - 159] | – | – | 14 nM | 27 nM |
| UAAAAACAUGAGGAUCACCCAUGUGAGAACAUGGGAGGAUAUACGAAGACGAAAGUCAAAGUAGAAGGCCUAAAAU [Mat - Same State 1 - Mod - D171] | – | – | 302 nM | 15.6 nM |
| UACAGGAAGAGAGAGGAUAUCCAAAGGAAAACAUGAGGAUCACCCAUGUAAAAGGUAGGAAAUUGGGAGAAGGCUCAAGAGAGAG [salish99-ss2-090] | – | – | 21 nM | 32 nM |
| UAUCAUUACACGAAGGAUAUCGAAAAAAGAACAUGAGGAUCACCCAUGUAAAAUAAAACACAGAACGAGAAGGUCGAGGGUGAAG [JR_SS002_Sub701] | – | – | 15.8 nM | 34.2 nM |
| UAUCAUUACACGAAGGAUAUCGAAAAAAGAACAUGAGGAUCACCCAUGUGAAAUAAAAUACAGAACGAGAAGGUCGAGGGUGAAG [JR_SS002_Sub702] | – | – | 23.1 nM | 30.3 nM |
| UAUCAUUACACGAAGGAUAUCGAUAAUUGAACAUGAGGAUCACCCAUGUGAUAUAUUUUACAGUUCGAGAAGGUCGAGGGUGAAG [JR_SS002_Sub705] | – | – | 16.6 nM | 32.4 nM |
| UGAAAACAUGAGGAUCACCCAUGUAAAAACAUGGGAGGAUAUUGAAAAAAAAAAAAAAAACAAGAAGGCCCAAAAA [crooked] | – | – | 37.7 nM | 25.3 nM |
| UGGAGACAUGAGGAUCACCCAUGUGAGAAGAGGCGAGGAUAUCGAAAAAAAAAAAAAAAACGAGAAGGCGCGAGAC [salish99-SS1-010] | – | – | 33.3 nM | 41.2 nM |
| UGGAGACAUGAGGAUCACCCAUGUGAGAAGAGGCGAGGAUAUCGAAAGAAAGAAGAGAAACGAGAAGGCGCGAGCU [salish99-SS1-037] | – | – | 22.4 nM | 36.1 nM |
| UUACAGCACGGGUAGGAUAUGUAGGGUGGUACAUGAGGAUCACCCAUGUAUCCACCCUUCUAACGGCAGAAGGGCCUGUCGCUGC [Riarve] | – | – | 16.9 nM | 15.4 nM |
| UUUAAUUACACGAAGGAUAUCGAUUUUCAGACAUGAGGAUCACCCAUGUAGUAGAUUUCCCUGUUCGAGAAGGUCGCGGGUGAAC [JR_SS002_Sub602] | – | – | 39.3 nM | 30.3 nM |
| UUUCAUUACACGAAGGAUAUCGCUUUUCCGACAUGAGGAUCACCCAUGUAGUAGACCUCCCUGUUCGAGAAGGUCGCGGGUGAAC [JR_SS002_Sub604] | – | – | 192 nM | 32.4 nM |
